Results reported in IntAct's records for PubMed 8848052.

B1: mRNA export factor GLE1 (Saccharomyces cerevisiae), Q12315 (parent)
chain: MRFVFDEVFNSDTDSPEFEETCSTTSSTSSQCPTPEPSPAIKLPSFTKVGTKKLVNESVVILDPALENALRDLNLQSKLIPINEPIVAASSIIVPHSTNMPLPRASHSSLLDNAKNSNATAPLLEAIEESFQRKMQNLVLANQKEIQSIRENKRRVEEQRKRKEEEERKRKEAEEKAKREQELLRQKKDEEERKRKEAEAKLAQQKQEEERKKIEEQNEKERQLKKEHEAKLLQQKDKLGKAVTNFDKISKMFWHYKDKIAQIKQDIVLPIKKADVNVRNLLSRHKRKINPKFGQLTNSNQQLFKIQNELTQLINDTKGDSLAYHWILNFIAKAVVHQAETEVRVKPESALPLGKLTLYLLVQFPELQELFMARLVKKCPFVIGFTCEIDTEKGRQNMGWKRNNENKWEDNTSYDERMGGILSLFAIITRLQLPQEFITTTSHPFPIALSWHILARICNTPLNLITNTHFVILGSWWDAAAVQFLQAYGNQASKLLILIGEELTSRMAEKKYVGAARLRILLEAWQNNNMESFPEMSP
partner: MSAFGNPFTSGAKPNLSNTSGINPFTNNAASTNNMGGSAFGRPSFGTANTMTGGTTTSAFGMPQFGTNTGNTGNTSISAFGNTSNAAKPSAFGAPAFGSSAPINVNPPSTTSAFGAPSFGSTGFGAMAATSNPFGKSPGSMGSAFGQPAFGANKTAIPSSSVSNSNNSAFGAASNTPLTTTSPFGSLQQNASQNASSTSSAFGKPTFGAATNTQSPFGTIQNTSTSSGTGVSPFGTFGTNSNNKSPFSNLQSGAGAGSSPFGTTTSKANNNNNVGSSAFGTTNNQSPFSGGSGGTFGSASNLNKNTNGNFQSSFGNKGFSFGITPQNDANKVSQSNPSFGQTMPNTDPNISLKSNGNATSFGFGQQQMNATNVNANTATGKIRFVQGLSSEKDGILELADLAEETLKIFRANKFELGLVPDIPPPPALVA

Variants of: B1
Conditions: with nup42_yeast NUP42, P49686
In the case of MRFVFDEVFNSDTDSPEFEETCSTTSSTSSQCPTPEPSPAIKLPSFTKVGTKKLVNESVVILDPALENALRDLNLQSKLIPINEPIVAASSIIVPHSTNMPLPRASHSSLLDNAKNSNATAPLLEAIEESFQRKMQNLVLANQKEIQSIRENKRRVEEQRKRKEEEERKRKEAEEKAKREQELLRQKKDEEERKRKEAEAKLAQQKQEEERKKIEEQNEKERQLKKEHEAKLLQQKDKLGKAVTNFDKISKMFWHYKDKIAQIKQDIVLPIKKADVNVRNLLSRHKRKINPKFGQLTNSNQQLFKIQNELTQLINDTKGDSLAYHWILNFIAKAVVHQAETEVRVKPESALPLGKATLYLLVQFPELQELFMARLVKKCPFVIGFTCEIDTEKGRQNMGWKRNNENKWEDNTSYDERMGGILSLFAIITRLQLPQEFITTTSHPFPIALSWHILARICNTPLNLITNTHFVILGSWWDAAAVQFLQAYGNQASKLLILIGEELTSRMAEKKYVGAARLRILLEAWQNNNMESFPEMSP [L356A], the “effect of a mutation on the interaction” value is reported as “decreasing interaction”.
